From US20260265349A1 (GRIFFITH UNIVERSITY, published 2026)
Where “and” joins values, the source holds several entries; their conditions need not be identical. Identical values can stand only once. Like-named read-outs stand apart in the source and are kept apart here.

T1: norovirus GII.17 Kawasaki308 virus-like particles (norovirus GII.17 Kawasaki308)
T1 construct: also called GII.17 Kawasaki308 VLPs; GII.17 VLPs
T1 chain: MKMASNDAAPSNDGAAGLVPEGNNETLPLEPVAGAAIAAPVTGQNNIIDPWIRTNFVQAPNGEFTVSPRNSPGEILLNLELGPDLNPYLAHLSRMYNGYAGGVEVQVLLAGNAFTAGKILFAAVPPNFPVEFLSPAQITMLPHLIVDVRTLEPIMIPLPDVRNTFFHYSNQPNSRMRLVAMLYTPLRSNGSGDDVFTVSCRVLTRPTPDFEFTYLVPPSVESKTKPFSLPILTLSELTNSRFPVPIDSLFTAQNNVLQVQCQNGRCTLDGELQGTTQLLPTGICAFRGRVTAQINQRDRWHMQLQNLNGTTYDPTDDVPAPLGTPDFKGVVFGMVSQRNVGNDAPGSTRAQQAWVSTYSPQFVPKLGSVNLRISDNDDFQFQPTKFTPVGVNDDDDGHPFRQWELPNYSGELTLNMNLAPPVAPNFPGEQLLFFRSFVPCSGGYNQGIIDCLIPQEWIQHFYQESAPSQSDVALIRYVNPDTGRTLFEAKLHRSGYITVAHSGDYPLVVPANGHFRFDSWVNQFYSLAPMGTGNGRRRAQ

T2: norovirus GII.17 Kawasaki308 P domain (norovirus GII.17 Kawasaki308)
T2 construct: also called GII.17 P domain
T2 chain: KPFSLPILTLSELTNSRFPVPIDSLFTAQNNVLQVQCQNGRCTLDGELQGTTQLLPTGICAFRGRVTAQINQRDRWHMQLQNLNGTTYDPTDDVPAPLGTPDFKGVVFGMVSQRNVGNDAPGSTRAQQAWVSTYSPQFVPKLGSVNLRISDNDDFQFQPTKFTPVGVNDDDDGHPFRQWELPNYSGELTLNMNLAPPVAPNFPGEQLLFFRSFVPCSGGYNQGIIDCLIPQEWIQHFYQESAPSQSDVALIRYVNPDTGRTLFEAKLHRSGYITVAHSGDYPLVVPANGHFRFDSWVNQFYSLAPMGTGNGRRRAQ

T3: norovirus GII.10 Vietnam 026 virus-like particles (norovirus GII.10 Vietnam 026)
T3 construct: also called GII.10 VLPs
T3 chain: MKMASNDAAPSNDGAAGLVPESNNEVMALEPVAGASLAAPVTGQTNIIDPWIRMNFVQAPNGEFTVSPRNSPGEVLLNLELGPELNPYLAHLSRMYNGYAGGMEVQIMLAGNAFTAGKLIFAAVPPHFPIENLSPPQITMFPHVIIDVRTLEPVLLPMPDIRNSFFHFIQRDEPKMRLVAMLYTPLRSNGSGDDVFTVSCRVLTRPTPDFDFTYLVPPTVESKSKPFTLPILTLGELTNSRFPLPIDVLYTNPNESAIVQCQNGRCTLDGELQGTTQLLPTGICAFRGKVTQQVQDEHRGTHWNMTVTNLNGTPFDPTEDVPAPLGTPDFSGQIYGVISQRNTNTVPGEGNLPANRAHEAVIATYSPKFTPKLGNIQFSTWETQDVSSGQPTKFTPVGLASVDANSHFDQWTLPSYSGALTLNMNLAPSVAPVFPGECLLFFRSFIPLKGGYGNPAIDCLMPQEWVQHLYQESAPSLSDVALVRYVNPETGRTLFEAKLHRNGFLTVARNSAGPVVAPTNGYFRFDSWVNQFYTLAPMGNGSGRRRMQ

T4: norovirus GII.4 Sydney-2012 virus-like particles (norovirus GII.4 Sydney-2012, UniProt P54635 1-538)
T4 construct: also called GII.4 Sydney-2012 VLPs; GII.4 VLPs
T4 chain: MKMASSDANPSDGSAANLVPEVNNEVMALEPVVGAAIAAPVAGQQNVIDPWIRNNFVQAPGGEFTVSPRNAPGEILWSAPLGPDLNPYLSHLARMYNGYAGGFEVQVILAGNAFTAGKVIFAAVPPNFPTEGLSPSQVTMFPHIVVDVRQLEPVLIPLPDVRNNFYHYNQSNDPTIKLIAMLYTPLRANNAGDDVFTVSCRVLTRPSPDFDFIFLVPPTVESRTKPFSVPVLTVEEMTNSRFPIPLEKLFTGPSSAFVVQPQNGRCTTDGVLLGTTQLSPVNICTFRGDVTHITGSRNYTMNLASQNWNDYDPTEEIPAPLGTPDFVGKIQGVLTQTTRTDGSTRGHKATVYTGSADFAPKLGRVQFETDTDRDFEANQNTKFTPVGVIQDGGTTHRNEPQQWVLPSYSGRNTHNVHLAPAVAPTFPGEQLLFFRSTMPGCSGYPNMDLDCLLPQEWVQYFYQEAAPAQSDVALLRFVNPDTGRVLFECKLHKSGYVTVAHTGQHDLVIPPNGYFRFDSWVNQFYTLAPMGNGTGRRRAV

T5: norovirus GII.4 Sydney-2012 P domain (norovirus GII.4 Sydney-2012)
T5 construct: also called GII.4 P domain
T5 chain: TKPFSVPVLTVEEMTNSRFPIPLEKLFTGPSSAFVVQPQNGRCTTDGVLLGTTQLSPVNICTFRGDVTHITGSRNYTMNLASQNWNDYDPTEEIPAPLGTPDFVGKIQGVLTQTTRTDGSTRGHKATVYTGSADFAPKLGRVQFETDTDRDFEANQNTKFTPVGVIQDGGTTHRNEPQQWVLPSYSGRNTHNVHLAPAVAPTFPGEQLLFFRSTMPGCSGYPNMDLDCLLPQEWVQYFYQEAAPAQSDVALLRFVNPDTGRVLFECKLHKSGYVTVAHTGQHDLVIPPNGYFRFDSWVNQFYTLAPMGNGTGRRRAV


Tests used:
[1] = molecular target: T1, norovirus GII.17 Kawasaki308 virus-like …; experiment: direct ELISA on coated VLPs
[2] = molecular target: T2, norovirus GII.17 Kawasaki308 P domain; experiment: ITC, nanobody into P domain, 25 C
Procedure: (§1) Isothermal calorimetry (ITC) experiments were done using an ITC-200 (Malvern). Samples were prepared in PBS and filtered prior to the experiments. […] Injections were performed until saturation was achieved. To correct for heats of dilution from titrants control experiments were performed by titrating nanobodies into PBS. The heat associated with the control titration was subtracted from raw binding data prior to fitting. The data was fitted using a single set-binding model (Origin 7.0 software). Nanobody binding sites on the P domains were assumed to be identical. All ITC experiments were performed in triplicate with the average and standard deviation calculated.

[3] = molecular target: T1, norovirus GII.17 Kawasaki308 virus-like …; experiment: blocking ELISA: VLPs pre-incubated with nanobody, attachment to PGM (HBGA) coated plate
[4] = molecular target: T3, norovirus GII.10 Vietnam 026 virus-like …; experiment: direct ELISA on coated VLPs, heat map of OD492
[5] = molecular target: T4, norovirus GII.4 Sydney-2012 virus-like …; experiment: direct ELISA on coated VLPs, heat map of OD492
[6] = molecular target: T4, norovirus GII.4 Sydney-2012 virus-like …; experiment: direct ELISA on coated VLPs
[7] = molecular target: T5, norovirus GII.4 Sydney-2012 P domain; experiment: ITC, nanobody into P domain, 25 C
Procedure: as §1

[8] = molecular target: T3, norovirus GII.10 Vietnam 026 virus-like …; experiment: direct ELISA on coated VLPs, heat map of OD492
[9] = molecular target: T1, norovirus GII.17 Kawasaki308 virus-like …; experiment: direct ELISA on coated VLPs, heat map of OD492
[10] = molecular target: T4, norovirus GII.4 Sydney-2012 virus-like …; experiment: blocking ELISA: VLPs pre-incubated with nanobody, attachment to PGM (HBGA) coated plate
[11] = molecular target: T4, norovirus GII.4 Sydney-2012 virus-like …; experiment: direct ELISA, VLPs coated at 2 µg/mL, His-tagged nanobody detected with anti-His-HRP, OD490

| Binder | nanobody concentration at the cut-off (OD490 0.15) [1] [µg/mL] | +TΔS [2] [kJ/mol] | Kd [2] [µM] | ΔG [2] [kJ/mol] | ΔH [2] [kJ/mol] | IC50 [3] | binding result [4] | binding result [5] | nanobody concentration at the cut-off (OD490 0.15) [6] [µg/mL] | +TΔS [7] [kJ/mol] | Kd [7] [µM] | ΔG [7] [kJ/mol] | ΔH [7] [kJ/mol] | binding result [8] | binding result [9] | IC50 [10] [mg/L] | EC50 (read off the curve) [11] [mg/L] |
| --- | --- | --- | --- | --- | --- | --- | --- | --- | --- | --- | --- | --- | --- | --- | --- | --- | --- |
| NB-7 single domain antibody (VHH, also called GII.17 nanobody; not shown: C-terminal His tag ('His-tagged nanobodies')) VHH: QVQLQESGGGLVQAGGSLRLSCAASGRTFSSYRMGWYRQAPGKEREFVAAITGSGDSTNYADSVKGRFTVSGNSARNLVYLQMNSLKPEDTAVYLCVAYRTGGPPQWGQGTQVTVSS | 1.56 | 42.8 | 0.0409 | -42.3 | -85 | 0.88 mg/L | no binding | no binding | – | – | – | – | – | – | – | – | – |
| NB-76 single domain antibody (VHH, not shown: small tags and cut ends, also called GII.4 nanobody) VHH: QVQLQESGGGLVQAGGSLRLSCAASGTIFSIDAFGWYRQAPGKQREWVAGITSGSSTIYADFVKGRFTISRDNAKNTVFLQMNSLKPEDTAVYYCNRAKPPTYYSLEPWGKGTQVTVSS | – | – | – | – | – | – | – | – | 0.38 | 9.3 | 0.0567 | -41.4 | -50.7 | no binding | no binding | 1.42 | ~2 |
| NB-2 single domain antibody (VHH, also called GII.17 nanobody; not shown: C-terminal His tag ('His-tagged nanobodies')) VHH: QVQLQESGGGLVQAGGSLRLSCAASGRFFSSYAMGWFRQAPGKEREFVAAISWSGGSTYYADSVKGRFTTSRDNAKNTVYLLMNSLKPEDTAVYYCAAAREGAYYPDSYYRTVRYDYWGQGTQVTVSS | 0.78 | 25.7 | 0.0075 | -46.4 | -72.1 | 0.85 mg/L and 0.84 mg/L | no binding | no binding | – | – | – | – | – | – | – | – | – |
| NB-45 single domain antibody (VHH, also called GII.17 nanobody; not shown: C-terminal His tag ('His-tagged nanobodies')) VHH: QVQLQESGGGLVQAGGSLRLSCTVSGRTDSESTMGWFRQAAGKGREFVAAMNWRYATTYHTDSVKGRFTISKDSAKNTMYLQMNSLKPEDTAVYYCAHRYIYGSLSDSGSYDNWGQGTQVTVSS | – | -18.4 | 0.101 | -41.1 | -22.7 | 0.46 mg/L | no binding | no binding | – | – | – | – | – | – | – | – | – |
